Laboratory results from IntAct's records for PubMed 20819940.

B1: High mobility group protein B1 (Rattus norvegicus (Rat)), P63159 (parent)
chain: MGKGDPKKPRGKMSSYAFFVQTCREEHKKKHPDASVNFSEFSKKCSERWKTMSAKEKGKFEDMAKADKARYEREMKTYIPPKGETKKKFKDPNAPKRPPSAFFLFCSEYRPKIKGEHPGLSIGDVAKKLGEMWNNTAADDKQPYEKKAAKLKEKYEKDIAAYRAKGKPDAAKKGVVKAEKSKKKKEEEDDEEDEEDEEEEEEEEDEDEEEDDDDE

Variants of: B1
Conditions: with becn1_mouse Becn1, O88597
Sequence of becn1_mouse Becn1, O88597 (O88597 whole entry): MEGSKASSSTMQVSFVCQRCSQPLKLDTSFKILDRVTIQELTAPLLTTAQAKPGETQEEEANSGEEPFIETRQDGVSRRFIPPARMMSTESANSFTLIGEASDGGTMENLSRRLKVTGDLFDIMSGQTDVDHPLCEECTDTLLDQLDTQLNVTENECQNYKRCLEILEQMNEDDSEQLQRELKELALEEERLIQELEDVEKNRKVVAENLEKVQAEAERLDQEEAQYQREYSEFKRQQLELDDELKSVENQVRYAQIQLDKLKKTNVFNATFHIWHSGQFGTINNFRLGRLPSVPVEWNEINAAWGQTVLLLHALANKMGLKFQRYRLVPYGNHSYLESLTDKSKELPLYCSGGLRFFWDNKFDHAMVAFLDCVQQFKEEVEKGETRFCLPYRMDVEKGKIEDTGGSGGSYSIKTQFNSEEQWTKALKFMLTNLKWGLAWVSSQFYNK

For C45S, which “effect of a mutation on the interaction” value is on record?
Its value is “disrupting interaction”.

How did the “effect of a mutation on the interaction” value turn out when C23S was run?
The value was “disrupting interaction”.
